pKd: −log10 of the molar value. Bounds are passed on as bounds.

Assay [1] deals with HLA-A*02:01. The experiment in a line: IEDB peptide-MHC binding, purified MHC/competitive/fluorescence; filed as Kd, often an IC50 or EC50 that approximates it; ≥ and ≤ were set here for values at or beyond the usual limits of such assays.
The next assay addresses HLA-A*02:03. Described as above.
The target of a further assay is HLA-A*02:11. The description is as above.
The target of a further assay is HLA-A*02:12. The assay is described as above.
The target in another assay is HLA-A*02:16. The description is as above.
Another assay addresses HLA-A*02:19. Described as above.
For assay [2], the target named is HLA-A*03:01. The assay is described as above.
Another assay addresses HLA-A*23:01. Described as above.
A further assay addresses HLA-A*24:03. Described as above.
The target in the next assay is HLA-A*26:01. The description is as above.
Another assay addresses HLA-A*29:02. The assay is described as above.
Another assay concerns the target HLA-A*68:02. Described as above.
The target in the next assay is HLA-A*69:01. The description is as above.
The target of assay [3] is HLA-B*15:01. The assay is described as above.
For another assay, the target named is HLA-B*15:17. Described as above.
The target in another assay is HLA-B*18:01. The assay is described as above.
In a further assay the target is HLA-B*27:03. The assay is described as above.
For the next assay, the target named is HLA-B*39:01. Described as above.
Assay [4] concerns the target HLA-B*46:01. The description is as above.
The target in a further assay is HLA-B*51:01. The description is as above.
The next assay concerns the target HLA-B*57:01. Described as above.
The target in the next assay is HLA-A*01:01. The experiment in a line: IEDB peptide-MHC binding, purified MHC/direct/fluorescence; filed as Kd, often an IC50 or EC50 that approximates it; ≥ and ≤ were set here for values at or beyond the usual limits of such assays. The note with it: source organism: Escherichia coli O157:H7.
The target in assay [5] is HLA-A*02:01. The description is as above. The conditions noted are these: source organism: Escherichia coli O157:H7.
Assay [6] has as its target HLA-A*03:01. The assay is described as above. The conditions noted are these: source organism: Escherichia coli O157:H7.
The next assay concerns the target HLA-A*11:01. The assay is described as above. The conditions noted are these: source organism: Escherichia coli O157:H7.
The target of the next assay is HLA-A*24:02. The assay is described as above. The conditions noted are these: source organism: Escherichia coli O157:H7.
The next assay concerns the target HLA-B*07:02. Described as above. The note with it: source organism: Escherichia coli O157:H7.
Assay [7] has as its target HLA-B*15:01. The description is as above. The conditions noted are these: source organism: Escherichia coli O157:H7.
The target of a further assay is HLA-B*27:05. The description is as above. The conditions noted are these: source organism: Escherichia coli O157:H7.
The target of a further assay is HLA-B*40:01. Described as above. The conditions noted are these: source organism: Escherichia coli O157:H7.
A further assay concerns the target HLA-B*44:02. The assay is described as above. The conditions noted are these: source organism: Escherichia coli O157:H7.
Assay [8] addresses HLA-B*46:01. The description is as above. The conditions noted are these: source organism: Escherichia coli O157:H7.
A further assay has as its target HLA-B*58:01. The assay is described as above. The note with it: source organism: Escherichia coli O157:H7.
The target of a further assay is HLA-A*31:01. The experiment in a line: IEDB peptide-MHC binding, purified MHC/competitive/fluorescence; filed as Kd, often an IC50 or EC50 that approximates it; ≥ and ≤ were set here for values at or beyond the usual limits of such assays. The conditions noted are these: source organism: Entamoeba histolytica HM-1:IMSS.
The mark [9] stands for this setting: source organism: Bacillus cereus G9241.
The mark [10] stands for this setting: source organism: Listeria welshimeri serovar 6b str. SLCC5334.
Setting [11] is: source organism: Giardia lamblia ATCC 50803.
Setting [12] is: source organism: Entamoeba histolytica HM-1:IMSS.
Setting [13] is: source organism: Influenza A virus (A/red knot/Delaware/2561/1987(H10N5)).

Turning to DEEAINLFH, the pKd with HLA-A*02:01 [1] (setting [9]), with HLA-A*02:03 (setting [9]), in the assay with HLA-A*02:11 (setting [9]), with HLA-A*02:12 (setting [9]), with HLA-A*02:16 (setting [9]) and with HLA-A*02:19 (setting [9]) was ≤ 4.70 each time. Further, the pKd with HLA-A*03:01 [2] (setting [9]), in the assay with HLA-A*23:01 (setting [9]), with HLA-A*24:03 (setting [9]), with HLA-A*26:01 (setting [9]), with HLA-A*29:02 (setting [9]) and with HLA-A*68:02 (setting [9]) was ≤ 4.70 throughout. For the same sequence, the pKd in the assay with HLA-A*69:01 (setting [9]) was ≤ 4.70; with HLA-B*15:01 [3] (setting [9]), ≤ 4.70; with HLA-B*15:17 (setting [9]), ≤ 4.70; in the assay with HLA-B*18:01 (setting [9]), 6.16; with HLA-B*27:03 (setting [9]), ≤ 4.70; with HLA-B*39:01 (setting [9]), ≤ 4.70. Also, the pKd in the assay with HLA-B*46:01 [4] (setting [9]), in the assay with HLA-B*51:01 (setting [9]) and in the assay with HLA-B*57:01 (setting [9]) was ≤ 4.70 each time.

Regarding ELYENKPDV, the pKd with HLA-A*02:01 [1] (setting [10]) is 6.29; with HLA-A*02:12 (setting [10]), ≤ 4.70; with HLA-A*02:19 (setting [10]), 6.52; with HLA-A*03:01 [2] (setting [10]), ≤ 4.70; with HLA-A*23:01 (setting [10]), ≤ 4.70; with HLA-A*24:03 (setting [10]) it was ≤ 4.70. For the same sequence, the pKd in the assay with HLA-A*26:01 (setting [10]), in the assay with HLA-A*29:02 (setting [10]), in the assay with HLA-B*15:01 [3] (setting [10]), with HLA-B*18:01 (setting [10]), with HLA-B*27:03 (setting [10]) and with HLA-B*39:01 (setting [10]) was ≤ 4.70 throughout. Further, the pKd with HLA-B*46:01 [4] (setting [10]), with HLA-B*51:01 (setting [10]) and with HLA-B*57:01 (setting [10]) was ≤ 4.70 each time.

Regarding LLDDGWAGE, the pKd with HLA-A*02:01 [1] (setting [11]) is ≤ 4.70; in the assay with HLA-A*02:03 (setting [11]), ≤ 4.70; with HLA-A*02:11 (setting [11]) it was ≤ 4.70; with HLA-A*02:12 (setting [11]), 5.22; in the assay with HLA-A*02:19 (setting [11]), ≤ 4.70; with HLA-A*03:01 [2] (setting [11]), ≤ 4.70. The negative logarithm of the Kd (pKd) with HLA-A*23:01 (setting [11]), with HLA-A*24:03 (setting [11]), with HLA-A*26:01 (setting [11]), with HLA-A*29:02 (setting [11]), with HLA-A*68:02 (setting [11]) and with HLA-A*69:01 (setting [11]) was ≤ 4.70 throughout. The pKd with HLA-B*15:01 [3] (setting [11]), with HLA-B*15:17 (setting [11]), with HLA-B*18:01 (setting [11]), with HLA-B*27:03 (setting [11]), with HLA-B*39:01 (setting [11]) and with HLA-B*46:01 [4] (setting [11]) was ≤ 4.70 throughout. Besides, the pKd with HLA-B*51:01 (setting [11]) and with HLA-B*57:01 (setting [11]) was ≤ 4.70 in each case.

Consider PLKVKDIPF, for which the negative logarithm of the Kd (pKd) with HLA-A*01:01, in the assay with HLA-A*02:01 [5], with HLA-A*03:01 [6], with HLA-A*11:01, with HLA-A*24:02 and with HLA-B*07:02 was ≤ 4.70 throughout. For the same sequence, the pKd in the assay with HLA-B*15:01 [7] was 6.71; with HLA-B*27:05, ≤ 4.70; in the assay with HLA-B*40:01, ≤ 4.70; with HLA-B*44:02 it was ≤ 4.70; with HLA-B*46:01 [8] it was ≤ 4.70; in the assay with HLA-B*58:01 it was ≤ 4.70.

Turning to RTFDRFFEE, the pKd in the assay with HLA-A*02:01 [1] (setting [12]), with HLA-A*02:03 (setting [12]), with HLA-A*02:11 (setting [12]), with HLA-A*02:12 (setting [12]), in the assay with HLA-A*02:16 (setting [12]) and with HLA-A*02:19 (setting [12]) was ≤ 4.70 each time. Also, the pKd was ≤ 4.70 with HLA-A*03:01 [2] (setting [12]); ≤ 4.70 in the assay with HLA-A*23:01 (setting [12]); ≤ 4.70 in the assay with HLA-A*24:03 (setting [12]); ≤ 4.70 in the assay with HLA-A*26:01 (setting [12]); ≤ 4.70 in the assay with HLA-A*29:02 (setting [12]); 6.50 with HLA-A*31:01. Further, the pKd with HLA-A*68:02 (setting [12]), with HLA-A*69:01 (setting [12]), with HLA-B*15:01 [3] (setting [12]), with HLA-B*18:01 (setting [12]), in the assay with HLA-B*27:03 (setting [12]) and in the assay with HLA-B*39:01 (setting [12]) was ≤ 4.70 each time. The pKd with HLA-B*46:01 [4] (setting [12]), with HLA-B*51:01 (setting [12]) and with HLA-B*57:01 (setting [12]) was ≤ 4.70 throughout.

For the sequence VMTDGPANK, the pKd with HLA-A*02:01 [1] (setting [13]) was ≤ 4.70; with HLA-A*02:03 (setting [13]) it was ≤ 4.70; in the assay with HLA-A*02:11 (setting [13]), 6.70; with HLA-A*02:12 (setting [13]), ≤ 4.70; in the assay with HLA-A*02:19 (setting [13]) it was ≤ 4.70; in the assay with HLA-A*23:01 (setting [13]), ≤ 4.70. Besides, the pKd with HLA-A*24:03 (setting [13]), with HLA-A*26:01 (setting [13]), in the assay with HLA-A*29:02 (setting [13]), in the assay with HLA-B*15:01 [3] (setting [13]), in the assay with HLA-B*15:17 (setting [13]) and with HLA-B*18:01 (setting [13]) was ≤ 4.70 in each case. In addition, the pKd with HLA-B*27:03 (setting [13]), with HLA-B*39:01 (setting [13]), in the assay with HLA-B*46:01 [4] (setting [13]), in the assay with HLA-B*51:01 (setting [13]) and with HLA-B*57:01 (setting [13]) was ≤ 4.70 throughout.

As a reminder, the pKd is −log10 of the Kd, conventionally taken in molar units. High values mean a small Kd, low ones a large Kd.

The values above are taken from the Immune Epitope Database (IEDB).
